In patent US20180214548A1 (SHANGHAI YUNYI HEALTHCARE AND TECHNOLOGY, published 2018):

Columns and labels:
[1] = biological target: T1, human PD-1, full length, on cells (human, UniProt Q15116 25-288); experiment: cell-based or functional assay
[2] = biological target: T2, cyno PD-1, full length, on CHO-K1 cells (cyno monkey, UniProt B0LAJ3 25-288); experiment: flow cytometry on CHO-K1-cPD-1 cells
T2 construct: also called CHO-K1-cPD-1; cPD-1
Excerpt: CHO-K1 cells were stably transfected with pIRES plasmid containing the nucleic acid sequence encoding full length human PD-1 (see Example 2, step 2) to generate CHO-K1 cells stably expressing human PD-1 (herein referred to as CHO-K1-hPD-1 cells). Other CHO-K1 were stably transfected with pIRES plasmid containing the nucleic acid sequence encoding full length cyno PD-1 to generate CHO-K1 cells stably expressing cyno PD-1 (herein referred to as CHO-K1-cPD-1 cells). CHO-K1-hPD-1 and CHO-K1-cPD-1 cells were cultured and expanded in T-75 culture flasks to 90% confluence. The culture media was aspirated, and the cells were washed twice with HBSS (Hanks Balanced Salt Solution, Invitrogen). The cells were treated with enzyme-free cell dissociation solution (Versene solution, Invitrogen) and collected. The cells were then washed twice with HBSS, cell counts were determined, and cells were resuspended with HBSS at 2×10⁶ cells/mL. Goat serum was added to the cell suspension to a final concentration of 1%, and the cells were blocked for 30 minutes on ice and then washed twice with HBSS. The cells were collected after centrifugation and resuspended in FACS buffer (HBSS+1% BSA, v/v) at 2×10⁶ cells/mL. 100 uL of the cell suspension were then added to each well of 96-well plate. 100 uL of purified anti-PD-1 antibodies from Example 2 were added to each well of the 96-well plate and incubated for 2 hours on ice. […] The samples were washed three times with FACS buffer, and 100 uL fixation buffer (4% paraformaldehyde v/v) were added to each well and incubated for 10 minutes. The cells were then washed twice with FACS buffer and resuspended in 100 uL FACS buffer. The mean fluorescence intensity (MFI) was determined using FACS Calibur (BD), and the results are shown in FIGS. 7-8 and in Tables 10-11.

[3] = biological target: T1, human PD-1, full length, on cells; experiment: cell-based or functional assay; remark: listed apart in the source
[4] = biological target: T1, human PD-1, full length, on cells; experiment: cell-based or functional assay; remark: listed apart in the source
[5] = biological target: T1, human PD-1, full length, on cells; experiment: cell-based or functional assay; remark: listed apart in the source
[6] = biological target: T3, human PD-1^ECD-hFc protein (Immunogen A) (human, UniProt Q15116 25-167); experiment: BLI Octet Red 96, biotinylated PD-1ECD-hFc on streptavidin sensor
T3 construct: also called PD-1-hFc; hPD-1^ECD-hFc; not shown: human IgG Fc fragment (hFc)
T3 sequence (Q15116 25-167): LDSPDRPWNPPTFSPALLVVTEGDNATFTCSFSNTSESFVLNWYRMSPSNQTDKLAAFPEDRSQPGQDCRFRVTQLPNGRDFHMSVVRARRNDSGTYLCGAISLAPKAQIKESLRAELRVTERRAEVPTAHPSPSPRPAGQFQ
Experimental: Dissociation constants were determined by Octed red 96 (Fortiebio). The detailed operation and methods were followed according to the specifications of the instrument provided by the manufacturer. Briefly, a streptavidin sensor (SA sensor, Fortiebio) was used for the affinity determination. […] The reaction mixture was further incubated in PBS buffer (pH7.4) containing 0.1% (v/w) BSA and 0.02% (v/v) Tween20 at 30° C. for 5 minutes. […] The affinity, association and dissociation constants were determined using Octet User software, and the results are shown in Table 12.

[7] = biological target: T1, human PD-1, full length, on cells; experiment: flow cytometry on CHO-K1-hPD-1 cells

T2 sequence (B0LAJ3 entry or part of it limits assumed): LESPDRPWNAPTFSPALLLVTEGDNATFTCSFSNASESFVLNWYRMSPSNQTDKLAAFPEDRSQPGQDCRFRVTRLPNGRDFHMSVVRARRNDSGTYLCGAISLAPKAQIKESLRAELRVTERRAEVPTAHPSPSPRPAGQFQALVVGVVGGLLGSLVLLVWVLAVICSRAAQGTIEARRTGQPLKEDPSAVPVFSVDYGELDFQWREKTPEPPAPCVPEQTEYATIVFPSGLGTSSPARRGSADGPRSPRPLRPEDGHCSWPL
T1 sequence (Q15116 25-288): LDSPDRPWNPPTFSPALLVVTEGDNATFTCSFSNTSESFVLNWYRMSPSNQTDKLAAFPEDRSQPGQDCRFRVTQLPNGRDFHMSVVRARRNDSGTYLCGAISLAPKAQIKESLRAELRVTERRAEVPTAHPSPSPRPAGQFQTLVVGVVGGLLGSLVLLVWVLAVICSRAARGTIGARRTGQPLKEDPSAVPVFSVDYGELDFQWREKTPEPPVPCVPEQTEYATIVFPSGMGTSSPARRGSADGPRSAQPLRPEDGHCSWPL

Row | MFI at 0.1 nM [2] [MFI] | MFI at 1 nM [2] [MFI] | MFI at 10 nM [2] [MFI] | MFI at 100 nM [2] [MFI] | MFI at 0.0316 nM [2] [MFI] | MFI at 0.316 nM [2] [MFI] | MFI at 3.16 nM [2] [MFI] | MFI at 31.6 nM [2] [MFI] | other results | Binder
1 | 23.4 | 156 | 773 | 944 | – | – | – | – | IFN-γ release, mixed lymphocyte reaction (PBMC donor-2), antibody 0.001 µg/mL [1]: 2090 pg/mL; IFN-γ release, mixed lymphocyte reaction (PBMC donor-2), antibody 0.01 µg/mL [1]: 2720 pg/mL; IFN-γ release, mixed lymphocyte reaction (PBMC donor-2), antibody 0.1 µg/mL [1]: 2630 pg/mL; IFN-γ release, mixed lymphocyte reaction (PBMC donor-2), antibody 1 µg/mL [1]: 2830 pg/mL; IL-2 release, mixed lymphocyte reaction (PBMC donor-1), antibody 0.001 µg/mL [3]: 33.1 pg/mL; IL-2 release, mixed lymphocyte reaction (PBMC donor-1), antibody 0.01 µg/mL [3]: 48.9 pg/mL; IL-2 release, mixed lymphocyte reaction (PBMC donor-1), antibody 0.1 µg/mL [3]: 106 pg/mL; IL-2 release, mixed lymphocyte reaction (PBMC donor-1), antibody 1 µg/mL [3]: 65.6 pg/mL; IL-2 release, mixed lymphocyte reaction (PBMC donor-2), antibody 0.001 µg/mL [4]: 30 pg/mL; IL-2 release, mixed lymphocyte reaction (PBMC donor-2), antibody 0.01 µg/mL [4]: 43.4 pg/mL; IL-2 release, mixed lymphocyte reaction (PBMC donor-2), antibody 0.1 µg/mL [4]: 74.2 pg/mL; IL-2 release, mixed lymphocyte reaction (PBMC donor-2), antibody 1 µg/mL [4]: 103 pg/mL; IFN-γ release, mixed lymphocyte reaction (PBMC donor-1), antibody 0.001 µg/mL [5]: 3010 pg/mL; IFN-γ release, mixed lymphocyte reaction (PBMC donor-1), antibody 0.01 µg/mL [5]: 5910 pg/mL; IFN-γ release, mixed lymphocyte reaction (PBMC donor-1), antibody 0.1 µg/mL [5]: 15300 pg/mL; IFN-γ release, mixed lymphocyte reaction (PBMC donor-1), antibody 1 µg/mL [5]: 15200 pg/mL | chimeric anti-PD-1 antibody 21G8F11 (antibody, V domains shown) VH: EVQLLESGGGLAQPGGSLRLSCAASGFSFNTYLMHWVRQAPGKGLEWVSAISGGGGNTYYADSVKGRFTISRDNSKNTLYLQMNSLRAEDTAVYYCAKENRIPVAPFDYWGQGTLVTVSS VL: DIQMTQSPSTLSASVGDRVTITCRASQSISTWLAWYQQKPGKAPKLLIYKASSLESGVPSRFSGSGSGTEFTLTISSLQPDDLATYYCQQYNSFSWTFGQGTKVEIK
2 | 50.6 | 475 | 2120 | 2340 | – | – | – | – | – | chimeric anti-PD-1 antibody 223G6B5 (antibody, V domains shown) VH: QVQLQESGPGLVKPSETLSLTCAVSGHSIRGSYFWGWIRQPPGRGLEWIGSIYHSGSTYTNPSLKSRATISVDTSKNQFSLKLNSVTAADTAVYYCARDLDIATTRDYWGQGTLVTVSS VL: DIQLTQSPSFLSASVGDRVTIICRASQGINNYLAWYQQKPGKAPKLLIYAASTLQSGVPSRFSGSGSGTEFTLTISSLQPEDFATYYCQQLDSYPRTFGQGTKVEIKR
3 | 28.4 | 132 | 326 | 297 | 2.3 | 59.3 | 217 | 314 | IFN-γ release, mixed lymphocyte reaction (PBMC donor-2), antibody 0.001 µg/mL [1]: 1810 pg/mL; IFN-γ release, mixed lymphocyte reaction (PBMC donor-2), antibody 0.01 µg/mL [1]: 5520 pg/mL; IFN-γ release, mixed lymphocyte reaction (PBMC donor-2), antibody 0.1 µg/mL [1]: 12700 pg/mL; IFN-γ release, mixed lymphocyte reaction (PBMC donor-2), antibody 1 µg/mL [1]: 15900 pg/mL; IL-2 release, mixed lymphocyte reaction (PBMC donor-1), antibody 0.001 µg/mL [3]: 88.8 pg/mL; IL-2 release, mixed lymphocyte reaction (PBMC donor-1), antibody 0.01 µg/mL [3]: 131 pg/mL; IL-2 release, mixed lymphocyte reaction (PBMC donor-1), antibody 0.1 µg/mL [3]: 148 pg/mL; IL-2 release, mixed lymphocyte reaction (PBMC donor-1), antibody 1 µg/mL [3]: 140 pg/mL; IL-2 release, mixed lymphocyte reaction (PBMC donor-2), antibody 0.001 µg/mL [4]: 93.3 pg/mL; IL-2 release, mixed lymphocyte reaction (PBMC donor-2), antibody 0.01 µg/mL [4]: 145 pg/mL; IL-2 release, mixed lymphocyte reaction (PBMC donor-2), antibody 0.1 µg/mL [4]: 182 pg/mL; IL-2 release, mixed lymphocyte reaction (PBMC donor-2), antibody 1 µg/mL [4]: 194 pg/mL; IFN-γ release, mixed lymphocyte reaction (PBMC donor-1), antibody 0.001 µg/mL [5]: 2900 pg/mL; IFN-γ release, mixed lymphocyte reaction (PBMC donor-1), antibody 0.01 µg/mL [5]: 7530 pg/mL; IFN-γ release, mixed lymphocyte reaction (PBMC donor-1), antibody 0.1 µg/mL [5]: 12100 pg/mL; IFN-γ release, mixed lymphocyte reaction (PBMC donor-1), antibody 1 µg/mL [5]: 8110 pg/mL; Kd [6]: 0.032 nM; koff [6]: 1.3e-05 s⁻¹; kon [6]: 408000 M⁻¹ s⁻¹ | chimeric anti-PD-1 antibody 76G5B3 (antibody, V domains shown) VH: QVQLVESGGGVVQPGRSLRLSCAASGFTFSDYGFHWVRQAPGKGLEWVAVIWYDGSNEYYTDSVKGRFTISRDNSKNTLYLQMNSLRAEDTAMYFCVVNPFDYWGQGTLVTVSS VL: DIQMTQSPSSLSAFVGDRVTITCRASQGINHYLAWYQQKPGKAPNLLILAASTLLSGVPSRFGGRGSGTDFTLIISSLQPEDVATYYCQKYDSAPYTFGQGTKLEIK
4 | 13.7 | 46.3 | 174 | 150 | 2.2 | 25.8 | 89 | 151 | Kd [6]: 0.045 nM; koff [6]: 9.64e-06 s⁻¹; kon [6]: 212000 M⁻¹ s⁻¹ | chimeric anti-PD-1 antibody 32B5C7 (antibody, V domains shown) VH: EVQLLESGGGLVQPGGSLRLSCAASGFTFSSYAMSWVRQAPGKGLEWVSTISGSGGTTYYADSVKGRFTISRDNSKNTLYLQMNSLRAEDTAVYYCTLTGDPDYWGQGTLVTVSS VL: EIVLTQSPATLSLSPGERATLSCRASQSVSSYLAWYQQKPGQAPRLLIYDASKRATGIPARFSGSGSGTDFTLTISSLEPEDFAVYYCQQRNNWPLTFGGGTKVEIK
5 | – | – | – | – | – | – | – | – | MFI at 0.01 nM [7]: 2.8 MFI | fully human anti-PD-1 antibody 32B5C7 (antibody, human IgG4 S228P, kappa, V domains shown) VH: EVQLLESGGGLVQPGGSLRLSCAASGFTFSSYAMSWVRQAPGKGLEWVSTISGSGGTTYYADSVKGRFTISRDNSKNTLYLQMNSLRAEDTAVYYCTLTGDPDYWGQGTLVTVSS VL: EIVLTQSPATLSLSPGERATLSCRASQSVSSYLAWYQQKPGQAPRLLIYDASKRATGIPARFSGSGSGTDFTLTISSLEPEDFAVYYCQQRNNWPLTFGGGTKVEIKR
6 | 3.1 | 5.1 | 156 | 944 | 2.9 | 3.1 | 23.4 | 773 | – | chimeric anti-PD-1 antibody 204C5E12 (antibody, V domains shown) VH: QVQLVESGGGVVQPGRSLRLSCAASGFSFSYYGMHWVRQAPGKGLEWVAVIWYDGSNKYYADSVKGRFTISRDNSKNTLYLQMNSLRAEDTAVYYCASGITLVRGADYYYNYDMDVWGQGTTVTVSS VL: not shown
7 | 3.3 | 5.8 | 221 | 933 | 3.3 | 3.6 | 28 | 848 | – | chimeric anti-PD-1 antibody 226C3A7 (antibody, V domains shown) VH: QVQLQQSGPGLVNPSQTLSLTCAISGDSVSSNSGAWNWIRQSPSRGLEWLGRTYYRSKWYNDYGISVQSRITINPDTSKNHFSLQLNSVTPEDTAVYYCARDPYYYGSGSYFDYWGQGTLVTVSS VL: EIVMTQSPATLSVSPGERVTLSCRASLSVNSNLAWYQQKPGQAPRLLIYDTSTRATGVPARFSGSGSGTEFTLTISSLQSEDFAVYYCQQYHYWPLTFGGGTKVEIK
